Results as given in the nanobody polyreactivity screen of Harvey et al. (2022).

Assay: yeast display, Sf9 membrane polyspecificity reagent, FACS + sequencing; frameworks hold sequencing errors
In short: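 Galactose induction of a Saccharomyces cerevisiae BJ5465 synthetic nanobody display library ran 36–48 hours. The cells were then stained for 1 hour at 4 °C with 10% biotinylated, detergent-solubilized Sf9 membrane reagent, pulled down on streptavidin microbeads and FACS-sorted into low and high (top ~1%) gates on expression and reagent-binding fluorescence. Labels for polyreactivity follow the gate of origin.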

Sequence	polyreactivity (PSR sort gate)
QVQLVESGGGLVQAGGSLRLSCAASGSIFRPSAMGWYRQAPGKERELVAAIRWSTGNTYYADSVKGRFTISRDNAKNTVYLQMNSLKPEDTAVYYCAAAYWPVVWFYYWGQGTQVTVSS	low polyreactivity
QVQLVESGGGLVQAGGSLRLSCAASGSTLRDYVMGWYRQAPGKERELVAAITSRVDDTYYADSVKGRFTISRDNAKNTVYLQMNSLKPEDTAVYYCAKRYGRFYHYDYWGQGTQVTVSS	low polyreactivity
QVQLVESGGGLVQAGGSLRLSCAASGRTFYIYAMGWYRQAPGKERELVADITSGGSTYYADSVKGRFTISRDNAKNTVYLQMNSLKPEDTAVYYCAADWVTFYSYTEYDYWGQGTQVTVSS	low polyreactivity
QDQLVESGGGLVQAGGSLRLSCAASGSTFGYYAMGWYRKAPGKERELVAAITSGASTNYADSVKGRFTISRDNAKNTVYLQMNSLKPEDTAVSYCAAGFQTRTPLNEFDYWGQGTQVTVSS	low polyreactivity
QVQLVESGGGLVHAGGSLRLSCAASGRTFRLYVMGWYRQAPGKERELVASITRGTGTDYADSVKGRFRISRDNAKNTVYLQMNSLKPEDTAVYYCNVKYGQPIYGEFDYWGQGTQVTVSS	low polyreactivity
QVQLVESGGGLVQAGGSLRLSCAASGSIFAPNAMGWYRQAPRKEREFVAGITQSGTSTYADSVKGRFTISRDNAKNTVYLQMNSLKPEDTAVYYCAAEYYYGYWYGYIISYDYWGQGTQVTVSS	high polyreactivity
QVQLVESGGGLVQAGGSLRLSCAGSGGPFLDYIGWYRQAPGKEMVLVAAITFSGGSTYYADSVKGRLTISRENAKNTVYVQMNSLKPDDTAVYFCAAGWYDWPKYLLGGYTYYLYDSWRQGTQVTVSS	low polyreactivity
QVQLVESGGGLVQAGGSLRLTCAASGSTFSSYGMGWYRQAPGKERELVASITIRGGSTYYADSVKGRFTISRDNAKNTVYLQMNSLKPEDTAVYYCAADVTNRGTWVIYGYYYWGQGTQVTVSS	low polyreactivity
QVQLVESGGGLVQAGGSLRLSCAASGFIFRHNGMGWYRQAPGKERELVAAITKRGGDTYYADSVKGRFTISRDNAKNSVYLQMISLKREDTAVYYCTVDVRYPVSFDYDYWGQGNQVTVSS	low polyreactivity
QVQLVESGGGLVQAGGSLRISCAASGSTFSRNAMVWYRQAPGKERELVATISRSGRTNYADSVKGRFTISRDNAKNTVYLQMNSLKPEDTAVYYCNAGYRRSYEYWGQCTQVTVSS	low polyreactivity
QVQLVESGGGLVQAGGSLRLSCAASGRIFRFYAMGWYRQAPGKERELVAAISWRGGRTYYADSVKGRFTISRDNAKNTVYVQMNSLKPEDTAVYYCNADKYETSGWKYVSWGQGTQVTVSS	low polyreactivity
QVQLVESGGGLVQAGGSLRLSCAASGYTFSSNAMGWYRQATGKVSELVATNSSGGSTYYADSVKGRFTISRDNAKNTVYLQMYSLKPEDTAVYYCAADDLGWWFYSGGEDYYYWGQGTQVTVSS	low polyreactivity
QVQLVESGGGLVQAGGSLRLSCAASGRIFRVYAMGWYRQAPGKERELVAAISWSGGRTYYADSVKGRFTISRDNAKNTVYLQMNSLKPEDTAVYYCAAVSCYALGFDYWGQGTQVTVSS	high polyreactivity
QVQHVESGGGLVQAGGSLRLSCAASGIIFFKNAMGWYRQAPGKERELVAAISSTDTRTYYADSVKGRFTISRDNAKNTVYLQMNSLKPEDTAVYYCAASRRGGGLDYWGQGTQVTVSS	high polyreactivity
QVQLEESGGGLVQAGGSLRLSCAASGLTFEWYTMGWYRQAPGKERELVAVITVSGSSTYYADSVKGRFSISRDNAKNTVYLQMNSLKPEDTAVYYCNADWSFYSYTLYDYWGQGTQVTVSS	low polyreactivity
QVQLVESGGGLVQAGGSLRLSCAASGFTFRYYAMGWYRQAPGKERELVAAITWSGGRTYYADSVKGRFTISRDNAKNTVYLQMNSLKPEDTAVYYCNTPSLWSGEDYWGQGTQVTVSS	high polyreactivity

Sequence	polyreactivity (PSR sort gate)
QVQLVESGGGLVQAGGSLRLSCAASGRTFSINAMGWYRQAPGKERELVAAITWSGGSTYYADSVKGRFTISRDNAKNTVYLQMNSLKPEDTAVYYCNAGLGKFPVKGGRRYRLDYWGQGTQVTVSS	low polyreactivity
QVQLVESGGGLVQAGGSLRLSCAASGFIFWLNAMGWYRQAPGKERELVAAISIGGRTNYADSVKGRFTISRDNAKNTVYLQMNSLKPEDTAVYYCNKDYRSVYKGRGFDYWGQGTQVTVSS	low polyreactivity
QVQLVESGGGLVQAGGSLRLSCAASGSTFYIYAMGWYRPAPGKERELVAAIDWTGSTYYADSVKGRFTISRDNAKNTVNLQMNSLKPEDTAVYYCAAYYDLEDDSYRLNSWGQGTQVTVSS	high polyreactivity
QDQLVESVGGLVQAGGSLRLSCAASGSTISLYAMGWYRQAPGKERELVAAISQSGSRTYFADSVKGRFTISRDNAKNTVYLQMISLKQEDTAVYYCAAYSPQTYLRWTYGYWGQGTQVTVSS	high polyreactivity
QVQLQESGGGLVHAGGSLRLSCAASGTISFINMMGWYRQAAGRERELVASINFGANTNYADSVKGRFTISRDNAKNTVYLQMNSLKPEDTAVYYCAVYDFDAYTLYYWGQGTLVTVSS	high polyreactivity
QVQLVESGGGLVQAGGSLRLSCAASGRIFRHNTLGWYRQAPGKEREFVAAISRNGGITYYADSVKGRFTISRDNAKNTVYLQMNSLKPEDTAVYYCNAYTYRQNDYWGQGTQVTVSS	high polyreactivity
QVQLVESGGGLVQAGGSLRLSCAASGLTFRYYAMGWYRQAPGKERELVAAITASVGSTYYADSVKGRFTISRDNAKNTVYLQMNSLKPEDTAVYYCAAEGTPGPGGGYYWGQGTQVTVSS	low polyreactivity
QVQLLESGGGLVQAGGSLRLTCMASGSILGDRMSWYRQARGKEHELVATIYDGGITYYADSMKGRFTISRDNAKNTVYLQLNSLRPEDTAVYYCGASFEGYRYHVYCGQGTQVTVSS	low polyreactivity
QVHLVESGGGLVNAGGTLRLSCAASGSTYSRYAMGWYRQAPVKESELVAAITRSGGSTYYADSVKGRFTISRDNAKNTVYLQMNSLKPEDTAVYYCNRPRLYGGSPYYYWGQGTQVTVSS	high polyreactivity
QVQLVESGGGLVQAGGSLRLSCAASGRTFWVYAMGWYRQAPGKERELVAAINNGGSTTYADSVKGRFTISRDNAKNTVYLQMNSLKPEDTAVYYCAADSVKQVRYGNVGHDYWGQGTQVTVSS	low polyreactivity
QVQLEDSGGGLVQAGGSLRLSCAASGSIFYSNSMGWYRQAPGKERELVAAISSSGSRTYYADSVKGRFTISRDNAKNTVYLQMNSLKPEYTAVYYCSAVIRYTRSYDYWGQGTQLTVSS	high polyreactivity
QVQLVESGGGLVQAGGSLRLSCAASGITFYYYAKGWYRQAPGKEREFVAAINWSGTSTYYADSVKGRFTISRDNAKNTVYLQMNSLKPEDTAVYYCNAERGRSFWWAYDYWGQGTQVTVSS	low polyreactivity
QVQLVESGGGLVQAGGSLRLSCAASGRILRSNAMGWYRQAPVKERELVATISQRGGSTYADSVKGRFTISRDNAKNTVYLQMNSLKPEDTAVYYCNVGVPIGGFMSYWGGDYWGQGTQVTVSS	low polyreactivity
QVQLVESGGGLVQAGGSLRLSCAASGRILPWYAMGWYRQEPGKERELVARIRSTDSSNYADSVKGRFTISRDNAKNTVYLQMNSLKPEDTAFYYCAKVQWGFPYAWLGSDYWGQGTQVTVSS	low polyreactivity
QDQLVESGGGLVQAGGSIRLSCAASGYIFLLYDMGWYRQAPGKERDMVATITSGGGTYYADSVKGPFTISRDNAKNTVYLQMNSLKPEDTAVYYCNADLYRWTGRSYWDKHGYWGQVTQVTVSS	low polyreactivity
QVQLVESGGGLVQAGGSLRLSCAASGFIFFPYTMGWYRQAPGKERELVAAITNGGSTSYADSVKGRFTISRDNAKNTVYLQMNSLKPEDTAVYYCAADLGRNLLHTYYYWGQGTQVTVSS	low polyreactivity
